Our source for the microtubule-bound fluorescence intensity and Kd values is doi:10.1101/2020.06.12.149252.

The target in this experiment is taxol-stabilized microtubules (porcine brain tubulin) (porcine) (UniProt P02550). Briefly: TIRF microscopy.
Sequence of UniProt P02550 (P02550 whole entry): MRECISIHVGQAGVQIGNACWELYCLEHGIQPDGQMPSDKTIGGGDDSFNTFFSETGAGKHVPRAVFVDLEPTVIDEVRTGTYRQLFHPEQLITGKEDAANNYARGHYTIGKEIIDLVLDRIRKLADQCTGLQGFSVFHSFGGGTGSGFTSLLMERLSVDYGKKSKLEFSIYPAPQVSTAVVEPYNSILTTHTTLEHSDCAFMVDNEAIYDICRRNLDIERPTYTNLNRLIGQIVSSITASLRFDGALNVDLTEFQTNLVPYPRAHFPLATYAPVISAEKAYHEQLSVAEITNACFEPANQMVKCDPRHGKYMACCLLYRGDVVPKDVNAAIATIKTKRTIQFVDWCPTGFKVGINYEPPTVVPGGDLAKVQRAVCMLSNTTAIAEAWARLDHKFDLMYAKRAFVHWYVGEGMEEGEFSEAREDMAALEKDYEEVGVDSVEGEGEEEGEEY
The substance “sfGFP-DCLK1-D511N (kinase dead), expressed in bacteria under standard conditions (from UniProt O15075 1-740) (natural protein)” gave a microtubule-bound fluorescence intensity at 3 nM of 7140 and a microtubule-bound fluorescence intensity at 25 nM of 19600.

Broadly, the Kd is the equilibrium constant for the complex coming apart. “sfGFP-DCLK1-T687/688A co-expressed with lambda phosphatase, without ATP (from UniProt O15075 1-740) (natural protein)” displayed a Kd of 9.4 nM.

In turn, “sfGFP-DCLK1-T687A co-expressed with lambda phosphatase, without ATP (from UniProt O15075 1-740) (natural protein)” showed a Kd of 2.4 nM.

Take “sfGFP-DCLK1-T688A co-expressed with lambda phosphatase, without ATP (from UniProt O15075 1-740) (natural protein)”: the Kd is 2.4 nM.

“sfGFP-DCLK1-WT co-expressed with lambda phosphatase, without ATP (from UniProt O15075 1-740) (natural protein)” gave a Kd of 2.9 nM, a microtubule-bound fluorescence intensity at 3 nM of 14900, a microtubule-bound fluorescence intensity at 12 nM of 20600 and a microtubule-bound fluorescence intensity at 48 nM of 15900.

As to “sfGFP-DCLK1-WT treated with lambda phosphatase after purification (from UniProt O15075 1-740) (natural protein)”, the microtubule-bound fluorescence intensity at 3 nM amounted to 15900 and the microtubule-bound fluorescence intensity at 25 nM was 18200.

Consider “sfGFP-DCLK1-WT, expressed in bacteria under standard conditions (from UniProt O15075 1-740) (natural protein)”, for which the microtubule-bound fluorescence intensity at 3 nM amounted to 2560 and the microtubule-bound fluorescence intensity at 25 nM was found to be 16500.

With “sfGFP-DCLK1-ΔC4A co-expressed with lambda phosphatase, without ATP (from UniProt O15075 1-648) (domain or fragment)”, the microtubule-bound fluorescence intensity at 3 nM is 745, the microtubule-bound fluorescence intensity at 12 nM was 2550 and the microtubule-bound fluorescence intensity at 48 nM was determined as 4530.

On to “sfGFP-DCLK1-ΔC (aa 1-648) co-expressed with lambda phosphatase, without ATP (from UniProt O15075 1-648) (domain or fragment)”, for which the Kd was found to be 3.9 nM, the microtubule-bound fluorescence intensity at 3 nM was found to be 6790, the microtubule-bound fluorescence intensity at 12 nM amounted to 9840 and the microtubule-bound fluorescence intensity at 48 nM is 14800.

With “sfGFP-DCLK1-ΔC (aa 1-648) treated with lambda phosphatase after purification (from UniProt O15075 1-648) (domain or fragment)”, the microtubule-bound fluorescence intensity at 3 nM stood at 11800 and the microtubule-bound fluorescence intensity at 25 nM was found to be 21600.
